We go through eight molecules from patent US20220184120A1 (MINERVA BIOTECHNOLOGIES, published 2022).

T1: C-10 peptide (PSMGFR minus 10 amino acids from the C-terminus)
T1 construct: also called C-10 PSMGFR; PSMGFR C-10
T1 peptide: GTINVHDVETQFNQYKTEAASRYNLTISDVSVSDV

T2: N+9/C-9 peptide (9 amino acids added onto the N-terminus and 9 deleted from the C-terminus of PSMGFR)
T2 peptide: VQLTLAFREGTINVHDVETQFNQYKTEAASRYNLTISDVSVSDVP

T3: NME7-AB (recombinant) (Homo sapiens (Human), UniProt Q9Y5B8 92-376)
T3 construct: the entry ends in a His tag; also called NM23-H7
T3 sequence: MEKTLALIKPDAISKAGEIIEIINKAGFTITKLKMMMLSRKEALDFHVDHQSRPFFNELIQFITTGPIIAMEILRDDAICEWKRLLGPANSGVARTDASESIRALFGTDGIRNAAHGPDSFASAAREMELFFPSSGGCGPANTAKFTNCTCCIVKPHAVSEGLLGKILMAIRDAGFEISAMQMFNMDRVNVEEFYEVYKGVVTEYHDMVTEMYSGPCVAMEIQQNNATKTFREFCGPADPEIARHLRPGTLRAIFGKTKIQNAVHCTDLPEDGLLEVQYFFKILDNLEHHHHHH

T4: N+20/C-27 peptide (20 amino acids added onto the N-terminus and 27 deleted from the C-terminus of PSMGFR)
T4 peptide: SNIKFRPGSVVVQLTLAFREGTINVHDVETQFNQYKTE

T5: N-19/C-5 peptide
T5 peptide: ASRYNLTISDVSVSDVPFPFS

T6: N-19 peptide
T6 peptide: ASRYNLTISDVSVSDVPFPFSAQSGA

T7: N-26 peptide
T7 peptide: ISDVSVSDVPFPFSAQSGA

T8: N-30 peptide
T8 peptide: SVSDVPFPFSAQSGA

T9: N-10/C-5 peptide
T9 peptide: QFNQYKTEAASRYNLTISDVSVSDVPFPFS

B1: 20A10 mouse monoclonal antibody (antibody, V domains shown)
VH: EVMLVESGGGLVKPGGSLKLSCAASGFTFSTYAMSWIRQTPEKRLEWVASIGRAGSTYYSDSVKGRFTISRDNVRNILYLQMSSLRSEDTAMYYCARGPIYNDYDEFAYWGQGTLVTVSA
VL: NIMMTQSPSSLAVSAGEKVTMSCKSSQSVLYSSNQKNYLAWYQQKPGQSPKLLIYWASTRESGVPDRFTGSGSGTDFTLTISSVQAEDLAVYYCHQYLSSLTFGAGTKLELK
notes: raised against PSMGFR; also called MN-20A10; anti-PSMGFR antibody 20A10
B2: N-10 peptide (PSMGFR minus 10 amino acids from the N-terminus) (peptide)
peptide: QFNQYKTEAASRYNLTISDVSVSDVPFPFSAQSGA
notes: also called N-10 PSMGFR; PSMGFR N-10
B3: MN-C3 mouse monoclonal anti-MUC1* antibody (antibody, V domains shown)
VH: QVQLQQSGPELVRPGVSVKISCKGSGYRFTDYAMNWVKQSHAKSLEWIGVISTFSGNTNFNQKFKGKATMTVDKSSSTAYMELARLTSEDSAMYYCARSDYYGPYFDYWGQGTTLTVSS
VL: DVLMTQTPLSLPVSLGDQASISCRSSQTIVHSNGNTYLEWYLQKPGQSPKLLIYKVSNRFSGVPDRFSGSGSGTDFTLKINRVEAEDLGVYYCFQGSHVPFTFGSGTKLEIK
notes: mouse monoclonal raised against PSMGFR; also called Min-C3
B4: 17H6 mouse monoclonal antibody (antibody, V domains shown)
VH: EVKLVESGGGLVQPGGSLRLSCATSGFTFTDYYMSWVRQPPRKALEWLGFIRNKANGYTAEYSASVKGRFTISRDVSQNLLYLQMNILRAEDSATYYCAKDYYGSNPAWFAYWGQGTLVTVSA
VL: B3 VL with V2I, T28S, N33S, Y37F, T74I, N81S
notes: raised against N+9/C-9; also called N+9/C-9 antibody 17H6
B5: 31A1 mouse monoclonal antibody (antibody, V domains shown)
VH: QVQLQQSGAELAKPGASVKMSCKASGYTFTSYWMHWVKQRPGQGLEWIGYINPSTGYTEYNQKFKDKATLTADKSSSTAYMQLSSLTSEDSAVYYCARAYIDYWGQGTTLTVSS
VL: B3 VL with I21F, T28S, G96V, V99F, F101W, S105G
notes: raised against N+20/C-27; also called N+20/C-27 antibody 31A1
B6: MN-C2 mouse monoclonal anti-MUC1* antibody (antibody, V domains shown)
VH: EVQLEESGGGLVKPGGSLKLSCAASGFTFSGYAMSWVRQTPEKRLEWVATISSGGTYIYYPDSVKGRFTISRDNAKNTLYLQMSSLRSEDTAMYYCARLGGDNYYEYFDVWGAGTTVTVSS
VL: DIVITQSTASLGVSLGQRATISCRASKSVSTSGYSYMHWYQQRPGQPPKLLIYLASNLESGVPARFSGSGSGTDFTLNIHPVEEEDAATYYCQHSRELPFTFGGGTKLEIKR
notes: mouse monoclonal raised against PSMGFR; also called Min-C2
B7: 18B4 mouse monoclonal antibody (antibody, V domains shown)
VH: EVKLEESGGGLVQPGGSMKLSCAASGFTFNDAWMDWVRQSPEKGLEWVAEIRSTANIHTTYYAESVQGRFTISRDDSKSSVYLQMNSLRAEDTGIYYCTPLLYGFAYWGQGTLVTVSA
VL: DVVMTQSPLSLPVSLGDQASISCRTSQSLVHSNGNTYLHWHLQKPGQSPKVLIYKVSSRFSGVPDRFSGSGSGTDFTLKISRVEAEDLGVYFCSQNTHVPYTFGGGTKLEIK
notes: raised against PSMGFR; also called anti-PSMGFR antibody 18B4
B8: PSMGFR peptide (Primary Sequence of the MUC1 Growth Factor Receptor) (peptide)
peptide: GTINVHDVETQFNQYKTEAASRYNLTISDVSVSDVPFPFSAQSGA
notes: synthetic peptide immobilised on ELISA plates; also called MUC1* peptide; MUC1* extra cellular domain peptide

Experiment [1] addresses B8. The experiment in a line: ELISA. For orientation: An ELISA detects its analyte on a solid surface through an enzyme-linked reagent.
Experiment [2] concerns the target B2. The experiment in a line: ELISA.
In experiment [3] the target is T1, C-10 peptide (PSMGFR minus 10 amino …). The experiment in a line: ELISA (FIG. 64A).
For experiment [4], the target named is T2, N+9/C-9 peptide (9 amino acids added …). Put plainly: ELISA (FIG. 64A).
Experiment [5] deals with T3, NME7-AB (recombinant). The experiment in a line: ELISA (FIG. 2A-2D). Here is the method:
(§1) FIGS. 2A-2I show results of ELISA assays. MUC1* peptides PSMGFR, PSMGFR minus 10 amino acids from the N-terminus aka N−10, or PSMGFR minus 10 amino acids from the C-terminus, aka C−10 are immobilized on the plate and the following are assayed for binding: NME7-AB (FIG. 2A), MN-C2 monoclonal antibody (FIG. 2B), MN-E6 monoclonal antibody (FIG. 2C), or dimeric NME1 (FIG. 2D). […] MUC1* peptides PSMGFR minus 10 amino acids from the N-terminus aka N−10, or PSMGFR minus 10 amino acids from the C-terminus, aka C−10, are immobilized on the plate and the following are assayed for binding: MN-C3 (FIG. 2E) and MN-C8 (FIG. 2F).

Experiment [6] has as its target B8. Put plainly: ELISA (FIG. 9).
The target of experiment [7] is T1, C-10 peptide (PSMGFR minus 10 amino …). Put plainly: ELISA (FIG. 2E). Here is the method:
as §1

The target of experiment [8] is T4, N+20/C-27 peptide (20 amino acids added …). Put plainly: ELISA (FIG. 63). The procedure: (§2) ELISA assays were performed to determine if, in addition to recognizing their immunizing peptide, they recognized PSMGFR, N−10 or C−10. In addition, they were tested for their ability to bind to N+20/C−27, N+9/C−9. We first did the ELISA assay on our set of reference antibodies, MNC2, MNE6, which we know are cancer-specific plus MNC3, which we know recognizes stem cells and progenitor cells (FIG. 63A-63B). None of the reference antibodies bound to the N+20/C−27 peptide. MNC2 and MNE6 cannot bind to PSMGFR peptides with 27, 10 or 9 C-terminal deletions, however, MNC3 binds to C−10 and to N+9/C−9 peptides.

The target in experiment [9] is T2, N+9/C-9 peptide (9 amino acids added …). Put plainly: ELISA (FIG. 63). The procedure:
as §2

Experiment [10] has as its target B2. The experiment in a line: Table 4 criterion 1, Binds N-10.
For the next experiment, the target named is T5, N-19/C-5 peptide. The experiment in a line: ELISA (FIG. 69). The procedure: (§3) In order to further refine the epitopes to which each antibody binds, a series of smaller peptides derived from the PSMGFR sequence were synthesized: N−30 (SEQ ID NO:7), N−26 (SEQ ID NO:6), N−19 (SEQ ID NO:4), N−10/C−5 (SEQ ID NO:8), N−19/C−5 (SEQ ID NO:9). Each of the antibodies was tested in an ELISA assay for their ability to bind to this refined set of peptides, plus PSMGFR, N−10 and C−10 peptides (FIG. 67-69).

In experiment [11] the target is B2. The experiment in a line: ELISA (FIG. 69). Here is the method: as §3
The target of a further experiment is T6, N-19 peptide. The experiment in a line: ELISA (FIG. 69). Here is the method: as §3
The target in another experiment is T7, N-26 peptide. Put plainly: ELISA (FIG. 69). The procedure: as §3
A further experiment addresses T8, N-30 peptide. Put plainly: ELISA (FIG. 69). The procedure: as §3
The target in a further experiment is T9, N-10/C-5 peptide. The experiment in a line: ELISA (FIG. 69). Here is the method: as §3
In experiment [12] the target is T1, C-10 peptide (PSMGFR minus 10 amino …). The experiment in a line: ELISA.
Experiment [13] has as its target T4, N+20/C-27 peptide (20 amino acids added …). The experiment in a line: ELISA.
For experiment [14], the target named is B8. Put plainly: ELISA (FIG. 65).
For experiment [15], the target named is B8. The experiment in a line: ELISA (FIG. 2B).
The target in experiment [16] is B2. Put plainly: ELISA (FIG. 2B-2C).
Experiment [17] has as its target T4, N+20/C-27 peptide (20 amino acids added …). The experiment in a line: ELISA (FIG. 64A).
Experiment [18] deals with T3, NME7-AB (recombinant). Put plainly: ELISA (FIG. 2A). Here is the method:
as §1

Substitutions are numbered along the chain they refer to.

With B1, the binding result in experiment [1] is given as “binds”; in experiment [2], “binds”; in experiment [3] it was “no binding”; in experiment [4], “no binding”.
In the case of B2, the binding result with NME7-AB (recombinant) [5] is listed as “binds”.
For the molecule B3, the binding result was “binds” in [6]; “binds” in experiment [7]; “no binding” in [8]; “binds” in experiment [9]; “binds” in experiment [10].
With B4, the binding result (with N-19/C-5 peptide; in experiment [11]; with N-19 peptide; in the experiment with N-26 peptide; with N-30 peptide; with N-10/C-5 peptide) was “no binding” each time.
For the molecule B5, the binding result was “no binding” in experiment [2], “binds” in experiment [12], “binds” in [13] and “binds” in experiment [14].
For B6, the binding result is “binds” in [15]; “no binding” in [8]; “no binding” in experiment [3]; “no binding” in [4]; “binds” in [16].
With B7, the binding result in experiment [1] is listed as “binds”; in experiment [2], “no binding”; in experiment [12] it was “binds”; in experiment [17], “binds”; in [4], “binds”.
For the molecule B8, in the experiment with NME7-AB (recombinant) [18], the binding result is recorded as “binds”.
